Source: US20240132624A1 (Ablynx, published 2024)
Numbering of substitutions follows the chain as printed.

B1: T0263018B11 S56A (VHH, name in Kabat numbering)
VHH: EVQLVESGGGVVQPGGSLRLSCAASGFTFSSYAMYWVRQAPGKGLEWVSAISSGGGATDYADSVKGRFTISRDNSKNTLYLQMNSLRPEDTALYYCAADTLYTSLTWYSYWGQGTLVTVSS
notes: FLAG3-His6 tagged
B2: T0263018B11 T28P (VHH, name in Kabat numbering)
VHH: B1 VHH with T28P, A57S
notes: FLAG3-His6 tagged
B3: T0263018B11 S100Q (VHH, name in Kabat numbering)
VHH: B1 VHH with A57S, S104Q
notes: FLAG3-His6 tagged
B4: T0263018B11 S56V (VHH, name in Kabat numbering)
VHH: B1 VHH with A57V
notes: FLAG3-His6 tagged
B5: T0263018B11 S101M (VHH, name in Kabat numbering)
VHH: B1 VHH with A57S, S109M
notes: FLAG3-His6 tagged
B6: T0263018B11 S101T (VHH, name in Kabat numbering)
VHH: B1 VHH with A57S, S109T
notes: FLAG3-His6 tagged
B7: T0263018B11 S101W (VHH, name in Kabat numbering)
VHH: B1 VHH with A57S, S109W
notes: FLAG3-His6 tagged
B8: T0263018B11 S100M (VHH, name in Kabat numbering)
VHH: B1 VHH with A57S, S104M
notes: FLAG3-His6 tagged
B9: T0263018B11 T28V (VHH, name in Kabat numbering)
VHH: B1 VHH with T28V, A57S
notes: FLAG3-His6 tagged
B10: T0263018B11 S101V (VHH, name in Kabat numbering)
VHH: B1 VHH with A57S, S109V
notes: FLAG3-His6 tagged
B11: T0263018B11 S101E (VHH, name in Kabat numbering)
VHH: B1 VHH with A57S, S109E
notes: FLAG3-His6 tagged
B12: T0263018B11 T28L (VHH, name in Kabat numbering)
VHH: B1 VHH with T28L, A57S
notes: FLAG3-His6 tagged
B13: T0263018B11 S101Q (VHH, name in Kabat numbering)
VHH: B1 VHH with A57S, S109Q
notes: FLAG3-His6 tagged
B14: T0263018B11 S56K (VHH, name in Kabat numbering)
VHH: B1 VHH with A57K
notes: FLAG3-His6 tagged
B15: T0263018B11 S56T (VHH, name in Kabat numbering)
VHH: B1 VHH with A57T
notes: FLAG3-His6 tagged
B16: T0263018B11 S56H (VHH, name in Kabat numbering)
VHH: B1 VHH with A57H
notes: FLAG3-His6 tagged
B17: T0263018B11 T28I (VHH, name in Kabat numbering)
VHH: B1 VHH with T28I, A57S
notes: FLAG3-His6 tagged
B18: T0263018B11 T28N (VHH, name in Kabat numbering)
VHH: B1 VHH with T28N, A57S
notes: FLAG3-His6 tagged
B19: T0263018B11 S56Q (VHH, name in Kabat numbering)
VHH: B1 VHH with A57Q
notes: FLAG3-His6 tagged
B20: T0263018B11 S56L (VHH, name in Kabat numbering)
VHH: B1 VHH with A57L
notes: FLAG3-His6 tagged
B21: T0263018B11 S101A (VHH, name in Kabat numbering)
VHH: B1 VHH with A57S, S109A
notes: FLAG3-His6 tagged
B22: T0263018B11 T28W (VHH, name in Kabat numbering)
VHH: B1 VHH with T28W, A57S
notes: FLAG3-His6 tagged
B23: T0263018B11 S100K (VHH, name in Kabat numbering)
VHH: B1 VHH with A57S, S104K
notes: FLAG3-His6 tagged
B24: T0263018B11 T28Y (VHH, name in Kabat numbering)
VHH: B1 VHH with T28Y, A57S
notes: FLAG3-His6 tagged

What was measured:
[1] = molecular target: T1, cyno FcRn/b2M (cyno, UniProt Q8SPV9 24-297; Q8SPW0 21-119, biotinylated); assay: SPR pH 7.4;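 further: surface plasmon resonance kinetics, periplasmic extracts diluted 1:10 flowed over immobilized target at 25 °C, 120 s association then 600–3600 s dissociation, buffer with 150 mM NaCl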
T1 construct: bought recombinant biotinylated protein (Immunitrack ITF05 or ACRO FCM-C82W5); also called cFcRn; cFcRn/cb2M
Description: (§1) All kinetic measurements have been performed on ProteOn XPR36 (BioRad Laboratories, Inc.), MASS-2 (Sierra sensors, Gmbh) or SPR-32 (Bruker Corporation). […] The phytip purified periplasmic extracts were diluted 1:10 in running buffer (CPA+150 mM NaCl+0.005% Tw20 at pH 5.5, pH 6.0 or pH 7.4) and injected over the ligand surfaces (association: 120 s at 45 μL/min; dissociation: 600s-3600 s at 45 μL/min). Experiments were carried out at 25° C.

[2] = molecular target: T2, human FcRn/b2M (human, UniProt P61769 21-119, biotinylated); assay: SPR pH 7.4;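 further: surface plasmon resonance kinetics, periplasmic extracts diluted 1:10 flowed over immobilized target at 25 °C, 120 s association then 600–3600 s dissociation, buffer with 150 mM NaCl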
T2 construct: bought recombinant biotinylated protein (ACRO FCM-H82W4 or Immunitrack ITF01); also called hFcRn; hFcRn/hb2M
Description: as §1

[3] = molecular target: T1, cyno FcRn/b2M; assay: SPR off-rate; pH 7.4 vs pH 6.0;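 further: surface plasmon resonance with diluted periplasmic extracts flowed over ligand surfaces, 120 s association and 600–3600 s dissociation at 25 °C, running buffer containing 150 mM NaCl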
Description: as §1

[4] = molecular target: T2, human FcRn/b2M; assay: SPR off-rate; pH 7.4 vs pH 6.0;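 further: surface plasmon resonance with diluted periplasmic extracts flowed over ligand surfaces, 120 s association and 600–3600 s dissociation at 25 °C, running buffer containing 150 mM NaCl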
Description: as §1

[5] = molecular target: T1, cyno FcRn/b2M; assay: SPR pH 6.0;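 further: surface plasmon resonance kinetics at 25 °C, diluted periplasmic extracts injected over immobilized ligand surfaces, 120 s association then 600–3600 s dissociation, running buffer containing 150 mM NaCl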
Description: as §1

[6] = molecular target: T2, human FcRn/b2M; assay: SPR pH 6.0;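 further: surface plasmon resonance kinetics at 25 °C, diluted periplasmic extracts injected over immobilized ligand surfaces, 120 s association then 600–3600 s dissociation, running buffer containing 150 mM NaCl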
Description: as §1

T2 sequence (chain, as listed by the source limits assumed, chain 1 of 2): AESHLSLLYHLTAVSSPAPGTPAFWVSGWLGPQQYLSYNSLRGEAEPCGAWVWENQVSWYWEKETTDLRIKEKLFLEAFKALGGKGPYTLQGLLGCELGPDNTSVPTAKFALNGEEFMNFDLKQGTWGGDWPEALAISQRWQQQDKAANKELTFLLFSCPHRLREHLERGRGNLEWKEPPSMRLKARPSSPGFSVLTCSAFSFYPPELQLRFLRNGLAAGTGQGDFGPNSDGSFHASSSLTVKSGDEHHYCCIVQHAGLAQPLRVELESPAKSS
T2 sequence (P61769 21-119 limits assumed, chain 2 of 2): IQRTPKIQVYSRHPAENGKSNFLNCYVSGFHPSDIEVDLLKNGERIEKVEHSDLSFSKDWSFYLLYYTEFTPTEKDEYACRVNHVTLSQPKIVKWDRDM
T1 sequence (Q8SPV9 24-297 limits assumed, chain 1 of 2): as the sequence (chain, as listed by the source limits assumed, chain 1 of 2) above, with N39D, E44Q, G99S, S189G, S190N, L217M, S269T counted along it
T1 sequence (Q8SPW0 21-119 limits assumed, chain 2 of 2): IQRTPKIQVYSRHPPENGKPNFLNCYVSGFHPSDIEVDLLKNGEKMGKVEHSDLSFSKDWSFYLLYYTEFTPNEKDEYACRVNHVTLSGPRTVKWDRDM

| Binder | koff [1] [s⁻¹] | koff [2] [s⁻¹] | kd ratio pH 7.4/6.0 [3] | kd ratio pH 7.4/6.0 [4] | koff [5] [s⁻¹] | koff [6] [s⁻¹] |
| --- | --- | --- | --- | --- | --- | --- |
| B1 | 0.045 | 0.051 | 45 | 39 | 0.001 | 0.0013 |
| B2 | 0.033 | 0.039 | 28 | 26 | 0.0012 | 0.0015 |
| B3 | 0.058 | 0.13 | 69 | 68 | 0.00084 | 0.0019 |
| B4 | 0.038 | 0.044 | 37 | 34 | 0.001 | 0.0013 |
| B5 | 0.037 | 0.048 | 54 | 44 | 0.00068 | 0.0011 |
| B6 | 0.019 | 0.025 | 54 | 44 | 0.00036 | 0.00057 |
| B7 | 0.00086 | 0.0012 | 9 | 17 | 9.7e-05 | 7e-05 |
| B8 | 0.016 | 0.032 | 68 | 57 | 0.00024 | 0.00056 |
| B9 | 0.092 | 0.12 | 42 | 38 | 0.0022 | 0.0032 |
| B10 | 0.026 | 0.032 | 45 | 43 | 0.00058 | 0.00073 |
| B11 | 0.0034 | 0.0078 | 36 | 44 | 9.4e-05 | 0.00018 |
| B12 | 0.062 | 0.073 | 48 | 41 | 0.0013 | 0.0018 |
| B13 | 0.016 | 0.025 | 43 | 45 | 0.00038 | 0.00055 |
| B14 | 0.044 | 0.053 | 25 | 25 | 0.0018 | 0.0021 |
| B15 | 0.047 | 0.055 | 47 | 42 | 0.001 | 0.0013 |
| B16 | 0.046 | 0.055 | 36 | 35 | 0.0013 | 0.0016 |
| B17 | 0.033 | 0.049 | 75 | 46 | 0.00044 | 0.0011 |
| B18 | 0.069 | 0.097 | 77 | 51 | 0.0009 | 0.0019 |
| B19 | 0.068 | 0.067 | 38 | 30 | 0.0018 | 0.0022 |
| B20 | 0.013 | 0.02 | 28 | 26 | 0.00045 | 0.00075 |
| B21 | 0.058 | 0.062 | 45 | 36 | 0.0013 | 0.0017 |
| B22 | 0.014 | 0.024 | 80 | 59 | 0.00017 | 0.00041 |
| B23 | 0.083 | 0.18 | 69 | 54 | 0.0012 | 0.0032 |
| B24 | 0.042 | 0.071 | 79 | 59 | 0.00053 | 0.0012 |
